Target: T1, p82 (r82; Teb1-like RPA1-related telomerase holoenzyme subunit p82) (Tetrahymena thermophila, UniProt D2CVN6 1-701)
T1 sequence: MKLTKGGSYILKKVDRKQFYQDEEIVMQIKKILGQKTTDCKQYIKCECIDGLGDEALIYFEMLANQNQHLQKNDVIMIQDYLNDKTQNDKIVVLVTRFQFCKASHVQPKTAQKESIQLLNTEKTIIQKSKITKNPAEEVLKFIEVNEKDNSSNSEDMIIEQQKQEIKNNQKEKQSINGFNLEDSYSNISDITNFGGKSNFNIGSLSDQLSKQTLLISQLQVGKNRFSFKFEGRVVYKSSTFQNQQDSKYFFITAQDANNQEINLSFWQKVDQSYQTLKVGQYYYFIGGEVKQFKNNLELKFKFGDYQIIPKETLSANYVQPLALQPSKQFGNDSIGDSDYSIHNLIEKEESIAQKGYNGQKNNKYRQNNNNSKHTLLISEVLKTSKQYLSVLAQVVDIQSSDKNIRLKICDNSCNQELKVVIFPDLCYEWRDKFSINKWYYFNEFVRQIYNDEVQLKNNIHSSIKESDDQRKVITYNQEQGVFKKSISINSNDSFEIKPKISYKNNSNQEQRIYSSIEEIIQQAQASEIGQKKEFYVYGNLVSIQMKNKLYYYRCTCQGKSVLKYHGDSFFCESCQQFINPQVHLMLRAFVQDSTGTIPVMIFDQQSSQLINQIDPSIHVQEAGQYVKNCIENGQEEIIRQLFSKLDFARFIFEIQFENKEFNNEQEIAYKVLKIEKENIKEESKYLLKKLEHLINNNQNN
Assay: EMSA

B1: dsTelo3 (dsDNA)
DNA 1: CCCCAACCCCAACCCCAA
DNA 2: TTGGGGTTGGGGTTGGGG
binding result: no binding

Reference: publication PMC2913470
